Results published in patent US20100216187A1 (published 2010).

B1: Nanobody 4D10 (VHH)
VHH: EVQLVESGGGLVQAGDSLRLSCTASERPFMSYVMGWFRRAPGKDREFVGAITWSGINTWYSDSVLGRFTISRDNAKNTVYLQMNSLKPEDTAVYYCAVADGVGLYRYERQYDYWGQGTQVTVSS
B2: Nanobody 4C5 (VHH)
VHH: EVQLVESGGGLVQAGDSLRLSCAASGRPFSAYVMGWFRRAPGKEREFVGGINWNSANTWYTDSVLGRFTISKDNAKNTVYLQMNSLKPEDTAVYYCAAAGGVGYYRYERQYDYWGQGTQVTVSS
B3: Nanobody 4D7 (VHH)
VHH: EVQLVESGGGLVQAGDSLRLSCAASGRPFSSYVMGWFRRAPGKEREFVGGINWNSGNTWYSDSVLGRFTISRDNAKNTVDLQMNSLKPEDTAVYYCATASGVGYYRYERQYDYWGQGTQVTVSS
B4: Nanobody 4C4 (VHH)
VHH: EVQLVESGGGLVQAGDSLRLSCAASGRPFMSYVMGWFRRAPGKEREFVGGINWGSGNTWYTDSVLGRFTISRDNAKNTVYLQMNSLKPEDTAVYYCATAAGVGYYRYERQYDYWGQGTQVTVSS
B5: Nanobody 4A9 (VHH)
VHH: EVQLVESGGGLVQAGGSLRLSCEASGFTLDYSGVGWFRQAPGKERELVSCISRGGDRAGYANSVKGRFTMSRDNAKNILYLQMNSLKPEDTAVYYCAATHSGSGCYDGAIDYWGKGTLVTVSS
B6: Nanobody 4D5 (VHH)
VHH: EVQLVESGGGLVQAGGSLRLSCAASGLSFSKYAMGWFRQAPGKQREYVAVISSSDTTYYTNSAKGRFTISRDNAENTVYLQMNSLKPEDTAVYFCAADSYVTALQTLTQISYWGQGTQVTVSS
B7: Nanobody 4C11 (VHH)
VHH: EVQLVESGGGLVQAGGSLRLSCAASGLSFSRYAMGWFRQAPGKQREYVAVISSSDTTYYTNSAKGRFTISRDNAENTVYLQMNSLKPEDTAVYFCAADSFVTALQTLTQINYWGQGTQVTVSS
B8: Nanobody 4D4 (VHH)
VHH: EVQLVESGGGLVQAGDSLRLSCAASGRTFSPYVMGWFRRAPGKEREFVGGINWSGSNTWYTDSVKGRFTISRDNVKNMVYLQMNSLKPEDTAVYYCAAGSGVGMYRYERQYDYWGQGTQVTVSS
B9: Nanobody 4C3 (VHH)
VHH: EVQLVESGGGLVQAGGSLRLSCAASGRTFSSYAMAWFRQAPGEEREFVATISVSGGYTYYADSVKGRFTISRDNAKNTVYLQMNTLKPEDTAVYYCAAGDSSSWLEHMYDYWGQGTQVTVSS
B10: Nanobody 4C9 (VHH)
VHH: EVQLVESGGGLVQAGDSLRLSCTASERPFSTYVMGWFRRAPGKEREFVGGITWSGINAWYTDSVLGRFTISSDNAKNTVYLQMNSLKPEDTAVYYCAAASGVGRYRYELQYDYWGQGTQVTVSS
B11: Nanobody 4B1 (VHH)
VHH: EVQLVESGGGLVQPGGSLRLSCVAAGFTLDYYAIGWFRQAPGKEREGVSCITSDGRTYYADSVKGRFTISRDMAKKMVYLQMNSLKPEDTAVYYCAAGACMGGSGYEADFGSWGQGTQVTVSS
B12: Nanobody 4A6 (VHH)
VHH: EVQLVESGGGLVQPGGSLRLSCAASPFTLDYYAIGWFRQAPGKEREGVSCSTSHGKTYHADSVKGRFTISRDNAKNTVYLQMNSLKPEDTAVYYCAAGACMGGSGYEADFGSWGQGTQVTVSS
B13: Nanobody 4B10 (VHH)
VHH: EVQLVESGGGLVQAGDSLRLSCAASGRTFSSYAMGWFRQAPGTERQFVARITGKGDSTDYADSVRGRFTISRDNAKNTVYLQMNSLKPEDTAVYYCAADAFNSLLQAGRAEYWGQGTQVTVSS
B14: Nanobody 4C8 (VHH)
VHH: EVQLVESGGGLVQAGDSLRLSCAASGRTYTPYVMGWFRRAPGKEREFVGAVSWSGTNTWYTDSVKGRFTISRDNAKNTVYLQMNSLKPEDTAVYYCAAGDGVGIYRYEHQYDYWGQGTQVTVSS
B15: Nanobody 4B6 (VHH)
VHH: KVQLVESGGGLVQVGGSLRLSCVASGRTYGGNAMAWFRQAPGKEREFVAGIDWSSENTRYTDSVKGRFTISRDNAKNTMYLQMNSLKPEDTAVYYCAAGTSWGALASRLENAYSAWGQGTQVTVSS
B16: Nanobody 4B8 (VHH)
VHH: EVQLVESGGGLVQAGGSLRLSCAASGGTYSGNAMAWFRQAPGKEREFVAGIDWSSENTRYIDSVKGRFTISRDNAKNTMYLQMNSLKPEDTAVYYCAAGTSWGALASRLEAAYSSWGQGTQVTVSS
B17: Nanobody 4B5 (VHH)
VHH: EVQLVESGGGLVQAGDSLRLSCAASGRTYSRNAMAWFRQAPGKEREFVAGIDWSSENTRYIDSVKGRFTISRDNAKSTMYLQMNSLKPEDTAVYYCAAGTSWGALASRLEAAYSSWGQGTQVTVSS

Biological target: T1, human serum albumin (human, UniProt P02768 25-609)
T1 construct: Bought serum albumin; also called HSA; antigen
Experiment: SPR (Biacore), ratio of the off rates at the two pH

Row | Binder | Ratio pH 7/pH 5 (of kd)
1 | B1 | 6.52
2 | B2 | 2.44
3 | B3 | 2.42
4 | B4 | 2.42
5 | B5 | 0.54
6 | B6 | 1.29
7 | B7 | 1.19
8 | B8 | 2.76
9 | B9 | 3.35
10 | B10 | 3.88
11 | B11 | 0.88
12 | B12 | 5.77
13 | B13 | 0.87
14 | B14 | 3.35
15 | B15 | 3.23
16 | B16 | 2.43
17 | B17 | 2.32
